Experimental data as given in the DeepSol protein solubility set.

Assay: soluble on expression in E. coli; label from the status in PepcDB or PDB records

| Sequence | soluble on expression in E. coli |
| --- | --- |
| MQKPSIPKGMRDFSPVEMSRRNYIFDTIREVYELFGFNQIETPTMEMLSTLMGKYGEEGDRLLFKVLNSGDVLADFCAEELAEKNSLRFAAKACEKGLRYDLTVPFARYVVMHRNEINFPFKRYQIQPVWRADRPQKGRYREFYQCDGDVIGSDSLMNEVELIQIISEVFRRLGIRTRILLNNRKILSGIAEVVDEADRLTDITVAIDKLDKIGLDKVNDELRTKGFGEEAIERLRPFIEMKGDNREKLDRLKSALASSETGLKGIEELTYILDKVERVQLHSELMVDISLARGLSYYTGAILEVKALDAEMGSITGGGRYDNLTGIFGLEGMSGVGISFGADRIYDVMMQLDLFPAEKLTGTQLLFVNFSEEDADSLLPLIQKLREQGLRTELYPEPAKIKKQMSYANAANIPYVALVGENERAAGQVNLKNMLTGEQQMLPADAATIVAAIV | not soluble |
| MAHHHHHHMAPPSSSACDPRVYLHERVRQHYLEVLPSRWRAVLFRLAKNTQLRQKNDVIVETHLLSEMQADFDLIHALLDEEHRVYREGVACLCSQASNGKSETERWTASRHLLQGMLSCIAMKEILIAHWKNDLVDISPNTLRVYCHACISHPHVSETDIERLLALYAVS | not soluble |
| MLRIEDLQLAAALAQAPSLSAAARALNVTPPALSMRLRKLEAGLGLALAVRSARRLSLTPEGERLAREAAALLAQLQALPESLRRDDSRLTGTLRVAAPFGYGRRHIAPVLARLAQRHPELRVQLDLRETPWPDHQDADAVVHIGAVRDSSWVTRRLADNERWLCASPQYLQDHGMPREPRDLLHHRCICIRENDEDASLWRFRRADAGAAGRKAAETVRIAPAYVSNDGNVARAWAEQGLGLVVRSQWDAEGAVARGALVRVMPQWQLDSAPVMLLVPGRKGRSARVKALLECFDEQAGHA | not soluble |
| MTRDEMRYMLETEGVLENEELEMLQGVFSLDTKVAREVMVPRTDAFMVDIQDDVQENINLILGENYSRIPVYSEDKDKIVGILHTKTLLKAARNLGFENIELGAIIQEPLFVPETIFIDDLLYELKRTQNQMAILLDEYGGVVGLATLEDLLEEIVGEID | not soluble |
| MGSSHHHHHHSSGLVPRGSMGFKVKLEKRRNAINTCLCIGLDPDEKDIENFMKNEKENNYNNIKKNLKEKYINNVSIKKDILLKAPDNIIREEKSEEFFYFFNHFCFYIINETNKYALTFKMNFAFYIPYGSVGIDVLKNVFDYLYELNIPTILDMKINDIGNTVKNYRKFIFEYLKSDSCTVNIYMGTNMLKDICYDEEKNKYYSAFVLVKTTNPDSAIFQKNLSLDNKQAYVIMAQEALNMSSYLNLEQNNEFIGFVVGANSYDEMNYIRTYFPNCYILSPGIGAQNGDLHKTLTNGYHKSYEKILINIGRAITKNPYPQKAAQMYYDQINAILKQNMES | soluble |
| MDMLNTLRDTLSSVQAELSTGVEKLRMNVSANIVAQQKVSTESVNEILNTSAGNELLQNFQNLITEVEENGAEGGRLANLCSTRMGRCQQMCKEKADAVMEIDEFLRNSVEFDKKIREINAQISKLTRFCNQTEQAMTYLEALCEVAHTEGEVDLIRQQAKSAATIVQIECESPSVLTSALRSRPEDAVKAQQEEVMLEEFLSSKNMQLP | not soluble |
| MRKLWVAFFASLVLAMPSWVSARSHAGGGADVHLPVGHMWKHEGLDEQKWMEMVQKYTPEQEEEWKKVLDERNALRQQLNDENVKQAIKEKCKKMKKEREAALDRLIDQLVDKKITKEQFKKEWKQLHKKKQWMTKEEKQQLHLLHEQTRQAMENNDQEAMKKLLPQWLDHMKKKNERLAKWLQEVKQG | not soluble |
| MEKIIEVNSVSKTFKHKKAVNNVSFHVNKGEIVALLGPNGAGKTTTMSMMLGLKDPTEGTVSIFGKNPKHRDVRNSLGAMLQEVSVIDSITVEEAIELFRSYYTNPVAKETLLQLSNLELERKQRCEKLSGGQKRRLNFALALAGNPDLLFLDEPTVGMDITSRRTFWETIRKLVSEGKTIILTTHYLEEADALADRILLFVNGKIIADGTPDEMKATISRKTISFYSKESIPAKLLKELPNVTEVQAKEGHFTLTTEDTDATLKAIYQKNLPVTDVSVERGSLDEAFEQFVANQKEEIA | not soluble |
| MVRKMNKLAKRLASTSKSRQPEPESDSDGSEFDFDNAIEEKPMEAMDIEEVESDGDDDERELQAAFAAGLLKDGLNIQVAKKRPIINKSAEMKEKLAEITKDLPWVETLEVVTPHSEMDKKVENDDFQRELNFYKQAEKAVQIAYPRLLNLGIKVLRPTDYYAEMAKSDTHMQKVRKRLLGIQEMKERQEAFRRIREEKKFAVKVQKEVLAAKNTEKKNLAEAVKKHKKGMKQQLEDMLNNVKRHGLDQDDDAPTGAFGDRLGGRGGAGRGGAGRGGSMRNAGELKRKLKSDKFGYGGKKKGMKRNNKESFNDLFGAPRGGFGGRGRGGGRGGRGGRGRR | not soluble |
| MPSSGQLYGDEERELTPTPAIPEEGVYEVKYSNRRTNVVRLLPNGFQERKLRRLANLSAKLFNEVNFERRQQFFHEGKVNIEETYKKYYEKYKVILGVNAQAVLNKNNEAWSSFFSLLKLKKEGKLPPHMNHVSPPGYWKDREAGKRKQILVIRQDRYKVDAENHKLILKDFDMEIDFIGRLKWYGKQGRLEIIFDETRNAWYAHIPIEVGVEETKAGKKSKHVVKGERKSIQISKPKGNKVASIDLGINVIASVVVNDGTWLLYKGVRTKEDYFYFQKRIAEVQSLADRTRNIGEYDAYLELLREKRRLFKKLTRRLTHLYRNLASHLIETLYELGVSTIYLGYPFNIVQEKGNKFTVNMWSYRKLMESIELKAQEYGMKVFEVVEYNTSKYCAYHDVEVKRNPRGVINCPLGHKLHSDLNGALNILKKALGVIVNAVKKPLSFIVDHNRVAPIKGCNPLEHHHHHH | not soluble |
| QIVDCWETWSRCTKWSQGGTGTLWKSCNDRCKELGRKRGQCEEKPSRCPLSKKAWTCICY | soluble |
| MEKDLQLRVNEKLDVENILKDLDKYTPKRRGWTWRQPAENLQMGPFIYKDASTPLENSVALPSAKYFGDIDPQPLPVITTEIASGRFEDDIRRMRMAAWHGADHIMVIRTAGQSHYDGLIEGTPQGIGGVPITRKQVRAQRKALDLIEEEVGRPINYHSYVSGVAGPDIAVMFAEEGVNGAHQDPQYNVLYRNINMIRSFIDACESKTIMAWADMAQIDGAHNANATAREAWKVMPELMVQHALNSIFSLKVGMKKSNICLSTVPPTAPPAPSMYLDLPYAVALREMFEGYRMRAQMNTKYMEASTREATVTHVLNLLISKLTRADIQSTITPDEGRNVPWHIYNIEACDTAKQALIGMDGLMDMVQLKREGVLGDTVRELKERAVLFMEEIIEAGGYFNAVEQGFFVDSGYYPERNGDGIARQINGGIGAGTVFERDEDYMAPVTAHFGYNNVKQYDEALVSEPSKLIDGCTLEVPEKIVYIDELDENDNVNVRMEETKEFRHSSMIKPEVEWQADGTVLLTMFLPTSKRVAEFAAIEFAKKMNLEEVEVINREVMQEAEGTRIELKGRVPFSIDINSLVIPPEPEILSEDEIREDIEKTPLKIVAATVGEDEHSVGLREVIDIKHGGIEKYGVEVHYLGTSVPVEKLVDAAIELKADAILASTIISHDDIHYKNMKRIHELAVEKGIRDKIMIGCGGTQVTPEVAVKQGVDAGFGRGSKGIHVATFLVKKRREMREGKSEDPNSSSVDKLAAALEHHHHHH | soluble |
| EAAPAPAGKGKILAVTACPTGIAHTFMAADALKEKAKELGVEIKVETNGSSGIKHKLTAQEIEDAPAIIVAADKQVEMERFKGKRVLQVPVTAGIRRPQELIEKAMNQDAPIYQGSGGGSA | not soluble |
| MLIKVKTLTGKEIEIDIEPTDTIDRIKERVEEKEGIPPVQQRLIYAGKQLADDKTAKDYNIEGGSVLHLVLALRGG | soluble |
| GSDIGQVIHPDDFDKAAADDYVLHEDGEKIYFLIKSKTDEYCFTNLALVHLDGESAVSSKRVLYRYPYAHYPIRHVMFETAGTVDLDVEIKFEIGGKHYSIDVDKKQLEHVKDLYKALLAIAEKQYEGQKMLEFANSSLNHSVTILGGLRQGDMNVPQTFKDLSQESFDWLQGHYYKWNQKDFGSFYEKYINN | soluble |
| MLCRNTARTGCKFFRLYHSNPIEHVKPIHIKPLTYGKESPQYKVLSLALQKFVPEHGFSERSIVESLNELGYPSSMISSIGAPNSPSFFHSSTAVMELIKFQLVDKRYRLTEGINPDVTPQYKLPSLEHLLLKRLEMDKPIGGHLSELMSQLAIPSAFLFETAIPELHRLSDDMIYFSNEKDHHDSAWYAKRLAVSSTYIGSKLFMAQDKSHNYKETFTFAKDKLHRVMRLGEYYNNTEEFAWYTLMSTVNLIKSQLVRG | not soluble |
| MSLATKVTLKDVAARAGVSYQTVSKVLNGEMQVAPETMERIQAAVQELGYRPNRIARNMRAGRSFMIGYSWTQTEPGQVNHILDQFLSSMVREAGAVNYFVLPFPFSEDRSQIDIYRDLIRSGNVDGFVLSSINYNDPRVQFLLKQKFPFVAFGRSNPDWDFAWVDIDGTAGTRQAVEYLIGRGHRRIAILAWPEDSRVGNDRLQGYLEAMQTAQLPIETGYILRGEGTFEVGRAMTLHLLDLSPERRPTAIMTLNDTMAIGAMAAARERGLTIGTDLAIIGFDDAPMVQYLFPPLSSVRQPIAEAGRKCIELLVAIVEGREPEQKHILLQPSLIIRASEGHHHHHH | soluble |
| MAALTKVKLCQLDDLMPFIGATVLIEGERVALFYIPDSGVYAVQDWDPIGKAYVMSRGIVGDINGEMCVASPLYKQHFSLKSGQCLEDEAHCLKTWRVTVDDNQVCYLAKELEHHHHHH | soluble |
| MGSDKIHHHHHHMGSSPARMSSGAPAPRVEVECLKAYSAPLEGRRGLLRLDFNENTIGPSPRVLEALRAIPADQIAVYPEYDGLREAVVANLSNRDQGRPGLTQPLSPSQIGLFNGVDAAIHAIFHAYGDRGDRLLTTSPTFGYYTPCAQMQGMKILAIPYEGSDFRFPLQVIRTLLQQKRPRLLLLCNPNNPTGTRLAPEQILELAVAAPETLVVVDELYEAFTGDSVLPQADFSVTPNLLVLRSLAKTAGLAGLRMGFAIGSADVIDRVSRVTGPYDINSFAVTAAFAALDDQAYVDAYVADVLKARDWISARLDASGVPYHLDGGNYLLIWPQQQPTEVEAALRKRGILVRLMTGKPLIDGSLRVSIGTIEQMQQFWQAFATVESLAA | not soluble |
| CYVDTNNDGAYEGDELSGTMEYKLILNGKTLKGETTTCAVDAATAEKVFKQYANDNGVDGEWTYDDATKTFTVTE | soluble |
| MGSDKIHHHHHHMPNTFEHLQAAHCENGVTTNLLRNVGVSKMTEPLAFGIGSGLFFIYIPLMKINGGPAIAYRTMPGLIFKRTAQSLGIDVVRKTFRSTIKAQEFLDACIKAGQPVGCQVGVYFLSYFPKEYRFHFNAHNLIVYGKEGDNYLVSDPVMETTNILSTYELERVRFAKGALAPKGQIYFPKPNHEPVSDDKIRKAIVTGVKRNIRDMLHIPGPIAGVSGIKYTGNKIKNWRDKLGIEKAGLYLAQLVRMQEEIGTGGGGFRFIYGAFLQQAHAFHNDDQLLEISKSFTQSGDLWRSAAIQAAGIYKGRITSQADFNVMGDYLLEISELEKKAFKELTKIKWQK | not soluble |
| MGSDKIHHHHHHENLYFQGDSFKTKSGKELTITFIKHGSLMLTYDNHSIQVDPVSEYADYTTFPKADIILITHEHGDHLDPKAIQAVEKSDTEIIANENSQKKLGKGKVLKNGDTDTSISYMKIEAVPAYNTTPGRDKYHPRHRDNGYILTFDGLRVYIAGDTEDIPEMKDLKDIDIAFLPVNQPYTMTVSQAAKAARMFSPKILYPYHYGDTKIGELKDALKDSGIDVRIRELQ | soluble |
